Assay results taken from patent publication US20240197828A1, “Chimeric molecule to treat sepsis and other inflammatory conditions” (THE FEINSTEIN INSTITUTES FOR MEDICAL RESEARCH, priority 2022, published 2024).

Assays:
RAW264.7 cells = experiment: eCIRP-induced cytokine release in RAW264.7 cells (ELISA of supernatants); format: cell-based, mouse; settings: RAW264.7, rmCIRP 1 μg/mL, 4 hours
Procedure: FIG. 2. Effects of MOP peptides on TNFα levels. RAW264.7 macrophages were cultured and treated with either volume-equivalent PBS, recombinant murine (rm) CIRP (eCIRP; 1 μg/mL), or rmCIRP with each respective peptide (10 μg/mL). After 4 hours, cell supernatants were assessed for TNFα levels by ELISA. Experiments were performed 3 times, and all data were used for analysis. Data are expressed as mean±SEM and compared by one-way ANOVA and SNK test. *p<0.05 vs. PBS, #p<0.05 vs. eCIRP.
FIG. 4. eCIRP-induced inflammation is attenuated by MOP3. RAW264.7 cells were treated according to respective groups: PBS (volume equivalent), rmCIRP (1 μg/mL), or rmCIRP with MOP3 at increasing doses. After 4 hours, cell supernatants were analyzed for TNFα levels by ELISA. […] Data are expressed as mean #SEM and compared by one-way ANOVA and SNK test. *p<0.05 vs. PBS, #p<0.05 vs. eCIRP.
Computational modeling was used to determine the likely domain of MFG-E8's binding to eCIRP. […] Binding of MOP3 to CIRP was quantified using Surface Plasmon Resonance (SPR) analysis. […] After 1 h, cells were fixed and analyzed for intracellular FITC-rmCIRP by flow cytometry. […] After 4 h, cell culture supernatants were analyzed for inflammatory cytokine, TNFα. […]
The mouse macrophage cell culture supernatants were analyzed for cytokine levels using ELISA kits (BD Biosciences, CA). […]

WT mice = experiment: Sterile eCIRP-induced inflammation by rmCIRP injection in mice; format: in vivo, mouse; settings: 4 hours, vs eCIRP alone
Procedure: FIG. 5A-5B. eCIRP-induced inflammation is attenuated by MOP3. WT mice were treated according to respective groups: PBS (volume equivalent), rmCIRP (5 mg/kg), or MOP3 (10 μg/kg) co-incubated with rmCIRP (5 mg/kg) for 30 mins prior to r.o. injection. After 4 hours, serum was measured for IL-6 (A) and TNFα (B) levels by ELISA. All experiments were performed 3 times, and all data were used for analysis (N=7-10). Data are expressed as mean±SEM and compared by one-way ANOVA and SNK test. *p<0.05 vs. PBS, #p<0.05 vs. eCIRP.
Adult (8-12 weeks) male, C57BL/6 wild-type (WT) mice (20-30 g) were purchased from Charles River Laboratories. MFG-E8 knockout mice (MFG-E8^−/−) were originally obtained from Dr. Shigekazu Nagata, Osaka University of Japan, and bred following our Institutional Animal Care and Use Committee (IACUC) policies. Age-matched, healthy mice were used in all experiments. Animals were randomly assigned to sham, vehicle, or treatment groups. Concerted effort was made to ensure that a limited number of animals were used in each experiment. […] For the design of in vivo models, sample size calculation was driven by variability, effect size, significance level and power as determined through performance of early feasibility and optimization pilot studies. […]
The mouse macrophage cell culture supernatants were analyzed for cytokine levels using ELISA kits (BD Biosciences, CA). […] TNF-α and IL-6 levels were measured in cell supernatants by ELISA in accordance with respective manufacturers' instructions (BD Biosciences, CA). Blood was collected, centrifuged at 4,000 RPM for 10 minutes, and sera was separated and analyzed for cytokine levels using ELISA kits (BD Biosciences, CA). TNF-α and IL-6 levels in the serum were measured by ELISA in accordance with respective manufacturers' instructions.
Serum levels of aspartate transaminase (AST), alanine transaminase (ALT), and lactate dehydrogenase (LDH) were determined using calorimetric enzymatic assays (Pointe Scientific, Canton, MI) according to the manufacturer's instructions.

[1] = rmCIRP 5 mg/kg co-incubated 30 min with test substance, r.o. injection

B1: milk fat globule-epidermal growth factor—factor VIII (protein, listed as Mus musculus)
chain: MQVSRVLAALCGMLLCASGLFAASGDFCDSSLCLNGGTCLTGQDNDIYCLCPEGFTGLVCNETERGPCSPNPCYNDAKCLVTLDTQRGDIFTEYICQCPVGYSGIHCETETNYYNLDGEYMFTTAVPNTAVPTPAPTPDLSNNLASRCSTQLGMEGGAIADSQISASSVYMGFMGLQRWGPELARLYRTGIVNAWTASNYDSKPWIQVNLLRKMRVSGVMTQGASRAGRAEYLKTFKVAYSLDGRKFEFIQDESGGDKEFLGNLDNNSLKVNMFNPTLEAQYIKLYPVSCHRGCTLRFELLGCELHGCSEPLGLKNNTIPDSQMSASSSYKTWNLRAFGWYPHLGRLDNQGKINAWTAQSNSAKEWLQVDLGTQRQVTGIITQGARDFGHIQYVASYKVAHSDDGVQWTVYEEQGSSKVFQGNLDNNSHKKNIFEKPFMARYVRVLPVSWHNRITLRLELLGC
IL-6 levels in cell supernatants (RAW264.7 cells; vs eCIRP alone): attenuated these levels in a dose-dependent manner | TNFα levels in cell supernatants (RAW264.7 cells; vs rmCIRP alone): attenuated these levels in a dose-dependent manner | serum IL-6 levels (WT mice; [1]): significantly reduced | serum TNFα levels (WT mice; [1]): significantly reduced | LDH levels (tissue injury) (WT mice; rmCIRP 5 mg/kg with rmMFG-E8 40 μg/kg): significantly reduced
